Laboratory results: publication PMC9287376

Key:
Conditions in all cases: natural protein; chains chain; remark: other sources report otherwise
[1] = target: T1, wild-type trigger factor, P0A850; assay: 0.06 M GdnHCl
T1 chain: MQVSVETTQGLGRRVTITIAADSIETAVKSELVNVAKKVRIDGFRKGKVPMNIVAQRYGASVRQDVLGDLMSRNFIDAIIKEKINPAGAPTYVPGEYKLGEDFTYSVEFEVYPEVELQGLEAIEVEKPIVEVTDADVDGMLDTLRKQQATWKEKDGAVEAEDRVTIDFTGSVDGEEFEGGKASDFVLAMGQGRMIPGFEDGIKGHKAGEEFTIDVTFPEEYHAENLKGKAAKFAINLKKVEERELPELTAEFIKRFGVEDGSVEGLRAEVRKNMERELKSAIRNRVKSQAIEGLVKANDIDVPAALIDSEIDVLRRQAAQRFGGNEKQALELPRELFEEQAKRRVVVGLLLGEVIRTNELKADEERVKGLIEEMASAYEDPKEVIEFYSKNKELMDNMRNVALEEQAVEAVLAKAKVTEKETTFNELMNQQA

[2] = target: T1, wild-type trigger factor, P0A850; assay: 0.26 M GdnHCl
[3] = target: T1, wild-type trigger factor, P0A850; assay: native buffer, no denaturant

B1: wild-type trigger factor, P0A850 1-432 (protein)
chain: MQVSVETTQGLGRRVTITIAADSIETAVKSELVNVAKKVRIDGFRKGKVPMNIVAQRYGASVRQDVLGDLMSRNFIDAIIKEKINPAGAPTYVPGEYKLGEDFTYSVEFEVYPEVELQGLEAIEVEKPIVEVTDADVDGMLDTLRKQQATWKEKDGAVEAEDRVTIDFTGSVDGEEFEGGKASDFVLAMGQGRMIPGFEDGIKGHKAGEEFTIDVTFPEEYHAENLKGKAAKFAINLKKVEERELPELTAEFIKRFGVEDGSVEGLRAEVRKNMERELKSAIRNRVKSQAIEGLVKANDIDVPAALIDSEIDVLRRQAAQRFGGNEKQALELPRELFEEQAKRRVVVGLLLGEVIRTNELKADEERVKGLIEEMASAYEDPKEVIEFYSKNKELMDNMRNVALEEQAVEAVLAKAKVTEKETTFNELMNQQA
Kd [1]: 29 µM
Kd [2]: 76 µM
Kd [3]: 18.4 µM
